Assay results from paper PMC3155373 (2011).

B1: Protein disulfide isomerase (YPDI) (protein)
chain: PEDSAVVKLATDSFNEYIQSHDLVLAEFFAPWCGHCKNMAPEYVKAAETLVEKNITLAQIDCTENQDLCMEHNIPGFPSLKIFKNSDVNNSIDYEGPRTAEAIVQFMIKQSQPAVAVVADLPAYLANETFVTPVIVQSGKIDADFNATFYSMANKHFNDYDFVSAENADDDFKLSIYLPSAMDEPVVYNGKKADIADADVFEKWLQVEALPYFGEIDGSVFAQYVESGLPLGYLFYNDEEELEEYKPLFTELAKKNRGLMNFVSIDARKFGRHAGNLNMKEQFPLFAIHDMTEDLKYGLPQLSEEAFDELSDKIVLESKAIESLVKDFLKGDASPIVKSQEIFENQDSSVFQLVGKNHDEIVNDPKKDVLVLYYAPWCGHCKRLAPTYQELADTYANATSDVLIAKLDHTENDVRGVVIEGYPTIVLYPGGKKSESVVYQGSRSLDSLFDFIKENGHFDVDGKALYEEAQEKAAEEADADAELADEEDAIHDEL
B2: Protein disulfide isomerase (HuPDI) (protein)
chain: not shown

Target: Green fluorescent protein (acid-denatured) (Aequorea victoria, UniProt P42212 = GFP)
Experiment: GFP refolding fluorescence kinetics (one-site fit, apparent Kd)

Binder	Kd [nM]
B1	300
B2	180
